Our source for the Kd values is publication PMC7979498 (2022).

In one experiment the target is T1, ROS1 ECD (Homo sapiens, UniProt P08922).
T1 chain: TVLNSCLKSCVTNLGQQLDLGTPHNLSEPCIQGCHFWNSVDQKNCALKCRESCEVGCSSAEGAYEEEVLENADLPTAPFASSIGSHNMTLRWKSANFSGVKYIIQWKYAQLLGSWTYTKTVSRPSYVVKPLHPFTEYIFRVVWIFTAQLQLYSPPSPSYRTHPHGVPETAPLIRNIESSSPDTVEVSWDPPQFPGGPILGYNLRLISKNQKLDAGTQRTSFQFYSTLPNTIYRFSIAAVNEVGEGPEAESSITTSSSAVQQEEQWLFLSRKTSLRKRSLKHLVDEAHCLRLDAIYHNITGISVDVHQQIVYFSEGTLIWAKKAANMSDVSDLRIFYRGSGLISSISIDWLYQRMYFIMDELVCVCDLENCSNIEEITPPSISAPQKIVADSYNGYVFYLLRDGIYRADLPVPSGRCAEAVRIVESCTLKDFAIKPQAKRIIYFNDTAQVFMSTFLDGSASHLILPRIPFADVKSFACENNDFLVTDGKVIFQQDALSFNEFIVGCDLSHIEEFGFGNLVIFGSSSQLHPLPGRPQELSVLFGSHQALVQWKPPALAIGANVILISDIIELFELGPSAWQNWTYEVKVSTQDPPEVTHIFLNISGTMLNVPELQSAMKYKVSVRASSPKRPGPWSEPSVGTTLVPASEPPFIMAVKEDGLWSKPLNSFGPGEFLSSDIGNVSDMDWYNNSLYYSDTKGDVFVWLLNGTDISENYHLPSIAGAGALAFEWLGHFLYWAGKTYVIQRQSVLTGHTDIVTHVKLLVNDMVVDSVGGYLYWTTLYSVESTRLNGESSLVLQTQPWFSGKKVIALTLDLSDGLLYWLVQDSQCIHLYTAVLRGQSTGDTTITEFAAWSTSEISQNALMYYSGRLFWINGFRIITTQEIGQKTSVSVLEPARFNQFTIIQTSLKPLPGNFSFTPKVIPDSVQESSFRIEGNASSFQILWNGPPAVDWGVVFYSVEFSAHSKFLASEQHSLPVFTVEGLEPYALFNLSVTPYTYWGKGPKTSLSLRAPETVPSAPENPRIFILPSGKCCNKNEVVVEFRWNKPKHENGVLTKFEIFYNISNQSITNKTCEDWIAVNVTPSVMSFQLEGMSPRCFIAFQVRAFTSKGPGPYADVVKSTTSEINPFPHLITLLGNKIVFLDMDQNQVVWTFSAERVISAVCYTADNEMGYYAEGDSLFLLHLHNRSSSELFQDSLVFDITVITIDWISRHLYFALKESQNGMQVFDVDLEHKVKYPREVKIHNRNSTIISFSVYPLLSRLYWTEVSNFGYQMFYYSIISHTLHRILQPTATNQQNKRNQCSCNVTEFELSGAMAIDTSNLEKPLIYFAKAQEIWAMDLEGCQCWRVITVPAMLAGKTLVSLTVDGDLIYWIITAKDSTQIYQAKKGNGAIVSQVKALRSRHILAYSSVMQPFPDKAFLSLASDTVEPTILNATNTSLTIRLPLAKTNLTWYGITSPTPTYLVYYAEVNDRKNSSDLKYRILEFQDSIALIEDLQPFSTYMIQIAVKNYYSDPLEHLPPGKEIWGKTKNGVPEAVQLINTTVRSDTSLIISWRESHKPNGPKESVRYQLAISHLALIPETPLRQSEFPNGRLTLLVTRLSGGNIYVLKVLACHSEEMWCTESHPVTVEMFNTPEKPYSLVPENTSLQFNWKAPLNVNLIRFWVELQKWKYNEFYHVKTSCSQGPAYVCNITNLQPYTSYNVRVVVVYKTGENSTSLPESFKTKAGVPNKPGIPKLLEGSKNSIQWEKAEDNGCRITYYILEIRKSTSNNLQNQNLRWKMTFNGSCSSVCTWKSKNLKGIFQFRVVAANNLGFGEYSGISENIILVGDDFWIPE
In words: saturation binding assay.

For a further experiment, the target named is T2, ROS1 (Homo sapiens, UniProt P08922).
T2 chain: T1 chain
In words: saturation binding assay.

B1: RNase7 (protein)
chain: KPKGMTSSQWFKIQHMQPSPQACNSAMKNINKHTKRCKDLNTFLHEPFSSVAATCQTPKIACKNGDKNCHQSHGAVSLTMCKLTSGKHPNCRYKEKRQNKSYVVACKPPQKKDSQQFHLVPVHLDRVL
For B1, the values for the Kd with ROS1 ECD and with ROS1 were 28.5 nM and 33.5 nM, respectively.

As a reminder, the Kd is the concentration at which binding is half-saturated. Low readings indicate a tighter complex, high ones a looser complex.
